{"source": "paper PMC3865061", "binders": {"B1": {"name": "Influenza A virus matrix protein M1 (full-length), strain A/Puerto Rico/8/34 (H1N1), P03485 1-252 (natural protein)", "chain": "MSLLTEVETYVLSIIPSGPLKAEIAQRLEDVFAGKNTDLEVLMEWLKTRPILSPLTKGILGFVFTLTVPSERGLQRRRFVQNALNGNGDPNNMDKAVKLYRKLKREITFHGAKEISLSYSAGALASCMGLIYNRMGAVTTEVAFGLVCATCEQIADSQHRSHRQMVTTTNPLIRHENRMVLASTTAKAMEQMAGSSEQAAEAMEVASQARQMVQAMRTIGTHPSSSAGLKNDLLENLQAYQKRMGVQMQRFK"}}, "key": {"[1]": {"target": "T1, Influenza A virus matrix protein M1 (full-length), strain A/Puerto Rico/8/34 (H1N1) (Influenza A virus A/Puerto Rico/8/34 (H1N1)), P03485", "T1 chain": "B1 chain", "test": "AUC", "conditions": "remark: other sources report otherwise"}, "[2]": {"target": "T1, Influenza A virus matrix protein M1 …", "test": "SAXS", "conditions": "remark: other sources report otherwise"}}, "data": [{"binder": "B1", "values": [{"measurement": "volume percent of large associates (volume percent)", "setting": "[1]", "result": "2 to 3"}, {"measurement": "volume fraction of clusters (volume fraction)", "setting": "[2]", "result": 0.03}]}]}
